According to article PMC3093405, “A Motif Unique to the Human Dead-Box Protein DDX3 Is Important for Nucleic Acid Binding, ATP Hydrolysis, RNA/DNA Unwinding and HIV-1 Replication” (PLoS ONE, 2011):

What was measured:
Assay type in all cases: biochemical
[1] = ATPase activity assay ([γ-32P]ATP hydrolysis, TLC), steady-state kinetics; conditions: for Intrinsic ability to hydrolyze ATP: absence of nucleic acid; for Stimulation of ATPase activity by nucleic acids: presence of both NA (RNA, DNA)
Description: (§1) The ATPase activity was determined, as previously described, by directly monitoring [γ-^32P] ATP hydrolysis by thin-layer chromatography (TLC). ATP (3000 Ci/mmol) as tracer, plus 1 mM of cold ATP, unless otherwise stated, and nucleic acids as indicated. Samples were incubated for 5 minutes at 25°C and dotted onto TLC sheets of polyethylenimine cellulose. The products were separated by ascending chromatography with 0.5 M KH2PO4 (pH 3.4). The intensities of the radioactive bands corresponding to ATP and Pi were quantified by densitometric scanning with PhosphoImager. For the stimulation of the ATPase activity, the ssDNA oligonucleotide oligo(dT)20 or the ssRNA oligonucleotide oligo (rU)20 were used. Time-course experiments were performed under the conditions described above. Samples were taken at different time points and processed as described above.
ATPase reactions were performed as described, in the presence of increasing amounts of nucleic acids and variable ATP concentrations. […] The relative -fold increase in the ATPase velocities 1−(vDNA/v) as a function of the nucleic acid concentrations was fitted to the hyperbolic relationship: [drawing 2] (2) where vNA is the apparent velocity of the reaction in the presence of nucleic acid, v is the velocity in its absence, KD is the apparent affinity for the nucleic acid and [NA] is the concentration of the nucleic acid substrate. The symbol KD is used, instead of Km, solely to reflect the fact that the NA is not a reactant (i.e. it is not converted into products) but only a cofactor of the reaction, without implying any assumption on the nature of the microscopic rates contributing to the KD value itself.

[2] = ATPase time-course (burst kinetics)
Description: as §1
Variation of the ATPase reaction as a function of time was fitted to the mixed-exponential equation: [drawing 3] (3) where [P] is the concentration of products (pmols) at any given time point, t is time, Aburst is the burst amplitude, k burst is the rate of the exponential phase, k ss is the rate of the steady-state linear phase.

[3] = test system: 18/36mer ds RNA oligonucleotide; test: RNA helicase assay; conditions: data not shown
Excerpt: (§2) The helicase activity of DDX3wt and mutant forms was monitored by measuring the conversion of a double stranded (ds) DNA or RNA (labelled at the 5′-end of one strand with a 6-FAM fluorescent group) into single stranded (ss) nucleic acid. For the RNA helicase assay, a 18/36mer ds RNA oligonucleotide with both 3′ and 5′-protruding ss ends was used. For the DNA helicase assay, three different dsDNA substrates were used, all of them composed of the same 18mer oligonucleotide 5′-FAM labelled and three different 38 mer oligonucleotides with the sequence complementary to the 18 mer at different positions. Annealing of the 18 mer to each of the 38 mer generated the different DNA substrates shown in Fig. 5 A. A final concentration of 20 nM RNA or DNA substrate was used in the experiments, unless otherwise stated. The amounts of the different DDX3 proteins are indicated in the respective Figures.
Reactions were performed in 50 mM TrisHCl pH 7.5, 1 mM DTT, 0.2 mg/ml BSA, 5% glycerol and 1 mM ATP, 10 mM MgCl2 at 37°C degrees for 10′ and stopped by adding EDTA 50 mM pH 8. Products were separated on a native 7% PAGE […] at 5 W in TBE buffer with 0.1% SDS at 4°C for 2 hours for RNA substrates, 4 hours for DNA substrates. Substrates and products were quantified by laser scanning densitometry (Thyphoon-TRIO, GE Healthcare). […]

[4] = test system: partially dsDNA substrates (18/38-mer); test: DNA helicase assay; conditions: for DNA helicase activity: data not shown
Excerpt: as §2
Reactions were performed in 50 mM TrisHCl pH 7.5, 1 mM DTT, 0.2 mg/ml BSA, 5% glycerol and 1 mM ATP, 10 mM MgCl2 at 37°C degrees for 10′ and stopped by adding EDTA 50 mM pH 8. Products were separated on a native 7% PAGE […] at 5 W in TBE buffer with 0.1% SDS at 4°C for 2 hours for RNA substrates, 4 hours for DNA substrates. Substrates and products were quantified by laser scanning densitometry (Thyphoon-TRIO, GE Healthcare). For trap-assays, the enzyme and the RNA substrate were incubated on ice for 4 min, in the absence of ATP. Reactions were started by addition of ATP and a 50-fold molar excess (1 µM) of r(A)40 trap RNA oligonucleotide, followed by incubation at 37°C for the indicated times.

[5] = relative to absence of nucleic acid

Molecule	k cat ([1]; +DNA, oligo(dT)20) [min⁻¹]	k cat ([1]; +RNA, oligo(rU)20) [min⁻¹]	Intrinsic ability to hydrolyze ATP [1]	k cat ([1]; absence of nucleic acids) [min⁻¹]	Stimulation of ATPase activity by nucleic acids [1]	Aburst ([2]; +DNA, oligo(dT)20) [µM]	k burst ([2]; +DNA, oligo(dT)20) [min⁻¹]	k ss ([2]; +DNA, oligo(dT)20) [min⁻¹]	Aburst ([2]; +RNA, oligo(rU)20) [µM]	k burst ([2]; +RNA, oligo(rU)20) [min⁻¹]	k ss ([2]; +RNA, oligo(rU)20) [min⁻¹]	Aburst ([2]; absence of nucleic acids) [µM]	k burst ([2]; absence of nucleic acids) [min⁻¹]	k ss ([2]; absence of nucleic acids) [min⁻¹]	RNA helicase activity [3]	DNA helicase activity [4]	Increase of catalytic efficiency (kcat/Km) by DNA [1, 5] [fold]	Increase of catalytic efficiency (kcat/Km) by RNA [1, 5] [fold]	DNA unwinding ([4]; DNA duplex with both 5′- and 3′-protruding ssDNA ends, 18/[5′-3′]-38 mer)
N-DDX3: DDX3 mutant lacking the C-terminus (Δ428–662), aa 1–427, entire subdomain 1 plus linker (protein, UniProt O00571 1-427, looked up, fragment) MSHVAVENALGLDQQFAGLDLNSSDNQSGGSTASKGRYIPPHLRNREATKGFYDKDSSGWSSSKDKDAYSSFGSRSDSRGKSSFFSDRGSGSRGRFDDRGRSDYDGIGSRGDRSGFGKFERGGNSRWCDKSDEDDWSKPLPPSERLEQELFSGGNTGINFEKYDDIPVEATGNNCPPHIESFSDVEMGEIIMGNIELTRYTRPTPVQKHAIPIIKEKRDLMACAQTGSGKTAAFLLPILSQIYSDGPGEALRAMKENGRYGRRKQYPISLVLAPTRELAVQIYEEARKFSYRSRVRPCVVYGGADIGQQIRDLERGCHLLVATPGRLVDMMERGKIGLDFCKYLVLDEADRMLDMGFEPQIRRIVEQDTMPPKGVRHTMMFSATFPKEIQMLARDFLDEYIFLAVGRVGSTSENITQKVVWVEESDK	1.1 ± 0.5	0.98 ± 0.03	low but detectable ATPase activity	0.8 ± 0.3	no stimulation	0.12 ± 0.01	0.5 ± 0.5	0.33 ± 0.05	0.13 ± 0.01	0.5 ± 0.5	0.35 ± 0.06	0.12 ± 0.02	1 ± 0.5	0.4 ± 0.05	did not show helicase activity	inactive	–	–	–
DDX1: full length human DEAD-box protein DDX1, recombinant, largest known insertion between motifs I and Ia (protein, UniProt Q92499 1-740, looked up, full-length, full length human DEAD-box protein DDX1, recombinant, largest known insertion between motifs I and Ia) MAAFSEMGVMPEIAQAVEEMDWLLPTDIQAESIPLILGGGDVLMAAETGSGKTGAFSIPVIQIVYETLKDQQEGKKGKTTIKTGASVLNKWQMNPYDRGSAFAIGSDGLCCQSREVKEWHGCRATKGLMKGKHYYEVSCHDQGLCRVGWSTMQASLDLGTDKFGFGFGGTGKKSHNKQFDNYGEEFTMHDTIGCYLDIDKGHVKFSKNGKDLGLAFEIPPHMKNQALFPACVLKNAELKFNFGEEEFKFPPKDGFVALSKAPDGYIVKSQHSGNAQVTQTKFLPNAPKALIVEPSRELAEQTLNNIKQFKKYIDNPKLRELLIIGGVAARDQLSVLENGVDIVVGTPGRLDDLVSTGKLNLSQVRFLVLDEADGLLSQGYSDFINRMHNQIPQVTSDGKRLQVIVCSATLHSFDVKKLSEKIMHFPTWVDLKGEDSVPDTVHHVVVPVNPKTDRLWERLGKSHIRTDDVHAKDNTRPGANSPEMWSEAIKILKGEYAVRAIKEHKMDQAIIFCRTKIDCDNLEQYFIQQGGGPDKKGHQFSCVCLHGDRKPHERKQNLERFKKGDVRFLICTDVAARGIDIHGVPYVINVTLPDEKQNYVHRIGRVGRAERMGLAISLVATEKEKVWYHVCSSRGKGCYNTRLKEDGGCTIWYNEMQLLSEIEEHLNCTISQVEPDIKVPVDEFDGKVTYGQKRAAGGGSYKGHVDILAPTVQELAALEKEAQTSFLHLGYLPNQLFRTF	2.1 ± 0.3	3.8 ± 0.5	–	1.9 ± 0.3	–	–	–	–	–	–	–	–	–	–	–	–	1.3	2.6	did not display DNA unwinding capability
I-DDX3: double deletion DDX3 mutant (Δ1–159/Δ428–662), aa 160–427, helicase core of subdomain 1 (protein, UniProt O00571 160-427, looked up, fragment) FEKYDDIPVEATGNNCPPHIESFSDVEMGEIIMGNIELTRYTRPTPVQKHAIPIIKEKRDLMACAQTGSGKTAAFLLPILSQIYSDGPGEALRAMKENGRYGRRKQYPISLVLAPTRELAVQIYEEARKFSYRSRVRPCVVYGGADIGQQIRDLERGCHLLVATPGRLVDMMERGKIGLDFCKYLVLDEADRMLDMGFEPQIRRIVEQDTMPPKGVRHTMMFSATFPKEIQMLARDFLDEYIFLAVGRVGSTSENITQKVVWVEESDK	1.4 ± 0.4	1.6 ± 0.5	low but detectable ATPase activity	1.1 ± 0.2	no stimulation	0.15 ± 0.02	0.4 ± 0.6	0.3 ± 0.05	0.11 ± 0.03	0.4 ± 0.5	0.4 ± 0.04	0.12 ± 0.02	0.3 ± 0.4	0.3 ± 0.05	did not show helicase activity	inactive	–	–	–
